Test results: patent publication US20180044401A1
“And” between values parts separate entries of the source, which are not always exact repeats. Equal values may be shown once.

What was measured:
[1] = molecular target: IgG-Fc of anti-TNFα monoclonal antibody (Remicade); test: SPR Biacore, Fc immobilized at about 10000 RU, peptide at 25-200 nM, response 1 minute after addition
[2] = molecular target: IgG-Fab prepared from anti-TNFα monoclonal antibody (Remicade); test: SPR Biacore, Fab immobilized at about 10000 RU, peptide at 25-200 nM, response 1 minute after addition

inclination of approximate curve (binding response against peptide concentration) [1]: 0.5 and 0.4 and 0.6 | inclination of approximate curve (binding response against peptide concentration) [2]: 0.5 and 0.4 and 0.6
B1: IgG-binding peptide of SEQ ID NO: 14 (designed binder)
chain: GPLGSTTYKLILNGKTLTGYTTAIADDAATAEKVLKQFANDNGIDGEWTYDDATKTFTVTE
